The source of these data is the RNAGym collection of RNA variant scans (doi:10.1073/pnas.2313332121).

Fewer inactive variants are shown than the library holds.

First the molecules themselves.
B1: TPR 5TU (parent)
chain: GGAUCUUCUCGAUCUAACAAAAAAGACAAAUCUGCCACAAAGCUUGAGAGCAUCUUCGGAUGCAGAGGCGGCAGCCUUCGGUGGCGCGAUAGCGCCAACGUUCUCAACUAUGACACGCAAAACGCGUGCUCCGUUGAAUGGAGUUUAUCAUG

Variants of B1 are the subject of the data set. Nature of the data set: polymerase ribozyme fitness, log enrichment relative to wild type (log ratio); higher = more active; in vitro selection for triplet polymerase activity. In short, it runs like this: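 Mutant libraries of each subunit of a heterodimeric triplet polymerase ribozyme were built by PCR and transcribed. Each library went through one round of in vitro selection in triplicate: annealing with biotinylated primer, partner subunit and triplets, frozen incubation at −7 °C, gel excision of extended constructs, streptavidin-bead capture and RT-PCR. Input and output libraries were Illumina-sequenced; only genotypes with ≥10 input reads and ≥1 read per output were kept. Fitness is log2(genotype enrichment/wild-type enrichment), using inverse-variance-weighted replicate averages.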
With A16U C54G C87A A98U, the “polymerase ribozyme fitness (log ratio)” value was not above -4.2.

On to U13C A21U A52C U55G G67U G80A C105U A150C, for which the “polymerase ribozyme fitness (log ratio)” value was not above -4.2.

Regarding U55A U127A A142U, the “polymerase ribozyme fitness (log ratio)” value was not above -4.2. The same measure for C43G G83A: not above -4.2; for C75U C79G: -4.07. On to C54G U55A G94U A98C A150G, for which the “polymerase ribozyme fitness (log ratio)” value was -3.84. Consider U130C A138G, for which the “polymerase ribozyme fitness (log ratio)” value was -3.28. Turning to G62A C85U G86U C87G, the “polymerase ribozyme fitness (log ratio)” value was not above -4.2. For U6G C93A A98G the value was -1.61. The same measure for U9A A21G A28C U45A A52C C87A G128A G136U: not above -4.2; for G59A G70C: -2.8. Consider G126A G140U, for which the “polymerase ribozyme fitness (log ratio)” value was -3.43. The same measure for U44G C54U C87U A91U G141C G143C: not above -4.2; for A20G C43U U55A C85U C96G A98U A107G: not above -4.2; for G92C A119G: 0.0407.

With A17G U134A, the “polymerase ribozyme fitness (log ratio)” value was -2.69.

Consider C87U G140A, for which the “polymerase ribozyme fitness (log ratio)” value is -3.7. G50C G94U A121U G128U: the “polymerase ribozyme fitness (log ratio)” value is not above -4.2. Take C5A G42A A97G U101G C103G A110G G140U: the “polymerase ribozyme fitness (log ratio)” value is -3.6.

With G46A A49C G71U G86A C96U A97U, the “polymerase ribozyme fitness (log ratio)” value was not above -4.2. Regarding U56A A73U G140A, the “polymerase ribozyme fitness (log ratio)” value was -4.06.

As to C27G G143C A150G, the “polymerase ribozyme fitness (log ratio)” value is not above -4.2. Turning to A52U G59C U101G A122U U144C, the “polymerase ribozyme fitness (log ratio)” value is -2.67. Regarding G67U U146A, the “polymerase ribozyme fitness (log ratio)” value was -2.89.

As to G84A G94A C125A, the “polymerase ribozyme fitness (log ratio)” value was -1.7. Turning to U53A G65A, the “polymerase ribozyme fitness (log ratio)” value is -1.33. For the variant A12G C57A G58A G81A C85U A91G A119G, the “polymerase ribozyme fitness (log ratio)” value was -3.03. Take C35U G124A: the “polymerase ribozyme fitness (log ratio)” value is -0.554. With U90A A119U G126A, the “polymerase ribozyme fitness (log ratio)” value is not above -4.2.

Consider A73U A97U A115G, for which the “polymerase ribozyme fitness (log ratio)” value was -3.45. Turning to A23G C54G G80C C105U C108U A113C C132G, the “polymerase ribozyme fitness (log ratio)” value is not above -4.2. Turning to A29U U61A G74U C118A U130A, the “polymerase ribozyme fitness (log ratio)” value was not above -4.2.

In the case of A29C U33A A41C U45A A91G, the “polymerase ribozyme fitness (log ratio)” value was not above -4.2. As to C10U A40C G42C A49G G58U G83C G92A A107C G141C C149G, the “polymerase ribozyme fitness (log ratio)” value was not above -4.2. With A73C A106U A110C, the “polymerase ribozyme fitness (log ratio)” value was not above -4.2. As to A22U C85G, the “polymerase ribozyme fitness (log ratio)” value is -1.73. With A17G A21U A49C G59C G74U C85G, the “polymerase ribozyme fitness (log ratio)” value is not above -4.2. In the case of A49G A52G U55C G84A A91C C99G U101G, the “polymerase ribozyme fitness (log ratio)” value was not above -4.2. The same measure for U145G: -0.131; for A52U C57G G58A C95U C123U G126U A138U: not above -4.2; for C5U C51A G117C: -2.16. For G11U C27G C35A C95U C131G G152U, the “polymerase ribozyme fitness (log ratio)” value was -3.68. With U15G A17U G25A U61G C93G G140U, the “polymerase ribozyme fitness (log ratio)” value is not above -4.2. As to A52G G58A C72A G83U C96U, the “polymerase ribozyme fitness (log ratio)” value was not above -4.2. For C10U A37U G50A A73U A122G the value was not above -4.2; for C14G U56A C96U, -3.43; for A41U A52U U55C A66U, not above -4.2. As to C116U G141A U146C, the “polymerase ribozyme fitness (log ratio)” value came to 0.219.

A52C C95A C132G G141A A150G: the “polymerase ribozyme fitness (log ratio)” value is not above -4.2. For C14A A41C C85A C132U U145A, the “polymerase ribozyme fitness (log ratio)” value was not above -4.2. Turning to U53A C85A, the “polymerase ribozyme fitness (log ratio)” value is -4. The same measure for C5G G86U: -2.77; for A12G A16G U31A C125A U145C: -0.993; for G83U G94A U127C: -3.92. On to G59A U144C, for which the “polymerase ribozyme fitness (log ratio)” value amounted to 0.0653. G25U A28C G50C A52C C93G: the “polymerase ribozyme fitness (log ratio)” value was not above -4.2.

Regarding C27G C75A C79G G92U A121C C131G A147C, the “polymerase ribozyme fitness (log ratio)” value was not above -4.2. Take A21U U44G C131U G136C G141U U151A: the “polymerase ribozyme fitness (log ratio)” value was not above -4.2. In the case of G84A G152A, the “polymerase ribozyme fitness (log ratio)” value is -2.93. The same measure for U15A C75G C95U A142C: not above -4.2; for A16G C108U G126A: not above -4.2; for C27U U44A C54U U56A A60U U82A C85U A97C C105G A110C C118A: not above -4.2. On to U31A C75G C76G G83U C95U A115U, for which the “polymerase ribozyme fitness (log ratio)” value is not above -4.2.

In the case of G59C C69A, the “polymerase ribozyme fitness (log ratio)” value is -1.79. For A40G G58A the value was -0.952; for A39U G70C G80U C87G C93U U134C, not above -4.2; for C76G G83U U90A G128U U135G, not above -4.2. The same measure for C5G U6G U61C C85U: -3.57; for A22C A39U U139A: not above -4.2; for C116G A122G: -0.408. With A19G C93U, the “polymerase ribozyme fitness (log ratio)” value was -1.99. For the variant G80A G83C, the “polymerase ribozyme fitness (log ratio)” value was -3.01. G84U G141C: the “polymerase ribozyme fitness (log ratio)” value was -2.49. Take A19U U56A: the “polymerase ribozyme fitness (log ratio)” value was -0.835. As to U7A G11A C32U C35G A41U U55A C87G C95A C114U, the “polymerase ribozyme fitness (log ratio)” value is not above -4.2. As for C14U C93U, the “polymerase ribozyme fitness (log ratio)” value is -2.62.

For A41C C76A C85G C99A, the “polymerase ribozyme fitness (log ratio)” value was not above -4.2. A49C U61A G86A A89U A138U: the “polymerase ribozyme fitness (log ratio)” value is not above -4.2. On to U144A A150U, for which the “polymerase ribozyme fitness (log ratio)” value is -1.5. As for C18A A73U G86A A110G, the “polymerase ribozyme fitness (log ratio)” value was not above -4.2. For G46C C87A G94C U101A U134A G141U the value was not above -4.2; for U33G A41U C51A G67C C72U, -3.95.

As for A20U A40C G59A U77C U101C C108A U146G, the “polymerase ribozyme fitness (log ratio)” value was not above -4.2.
